Experimental findings from publication PMC5458090, “Decoding NADPH oxidase 4 expression in human tumors” (Redox Biology, 2017) are described below.

In one assay the target is T1, endogenous human NOX4 (Homo sapiens (endogenous), UniProt Q9NPH5).
T1 construct: NADPH oxidase 4 (NOX4), endogenous in human cell lines and human tissues; also called endogenous NOX4; NOX4 protein; source: endogenous: CCL-210 lung fibroblast and COV362 whole-cell extracts; COV362 and OVCAR3 membrane fractions; COV362 cells; formalin-fixed human tissues (BioMax TMA MC6163)
Description: Western blot; whole-cell extracts (RIPA buffer) loaded without boiling on a 4-20% Tris glycine gel, transferred to nitrocellulose, incubated with primary antibody overnight; fibroblasts treated with TGF-β1, COV362 cells with NOX4 siRNA. The settings on record: one partner purified.

Assay [1] deals with T2, MycDDK-HsNOX4 (human NADPH oxidase 4) (Homo sapiens, UniProt Q9NPH5).
T2 construct: NADPH oxidase 4 (NOX4), human, from plasmid pCMV-MycDDK-HsNOX4; also called MycDDK-NOX4; source: HEK293, stably (clones WT1, WT2) or transiently transfected; in whole-cell extract or on/in cells; not shown: Myc, N-terminal, kept; DDK, N-terminal, kept
The assay is described as above. The settings on record: one partner purified.

T2 sequence (Q9NPH5 whole entry): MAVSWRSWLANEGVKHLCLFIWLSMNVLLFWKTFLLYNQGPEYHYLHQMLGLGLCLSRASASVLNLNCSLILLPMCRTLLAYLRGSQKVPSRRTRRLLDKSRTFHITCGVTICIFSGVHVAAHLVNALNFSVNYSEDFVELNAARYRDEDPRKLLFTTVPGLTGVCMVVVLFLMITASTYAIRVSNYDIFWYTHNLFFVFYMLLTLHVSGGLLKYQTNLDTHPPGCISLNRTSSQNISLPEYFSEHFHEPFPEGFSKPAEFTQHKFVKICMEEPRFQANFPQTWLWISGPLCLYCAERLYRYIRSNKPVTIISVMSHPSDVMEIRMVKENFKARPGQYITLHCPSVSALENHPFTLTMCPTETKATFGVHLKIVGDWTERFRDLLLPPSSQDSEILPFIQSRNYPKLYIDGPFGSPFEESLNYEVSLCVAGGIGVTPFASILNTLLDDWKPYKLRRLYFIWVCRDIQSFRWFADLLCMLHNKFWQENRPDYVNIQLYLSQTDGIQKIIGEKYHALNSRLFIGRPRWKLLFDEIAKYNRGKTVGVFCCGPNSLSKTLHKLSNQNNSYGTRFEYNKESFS
T1 sequence (Q9NPH5 whole entry): as above

B1: NOX4 rabbit monoclonal antibody 47-6 (antibody, V domains shown)
VH: QSVEESGGRLVTPGGSLTLTCTVSGIDLSSNSVTWVRQAPGEGLKWIGIISDSHRAYYATWAKGRFTISKTSSTTVDLKMTSLTTGDTATYFCVVGNNIWGPGTLVTVSS
VL: AQVLTQTASPVSAAVGGTVTINCQASESVYSDNRLSWFQQKPGQPPKLLIYYASTLASGVPSRVKGSGSGTQFTLTISDLECDDAATYYCAGGFSNNIYEFGGGTEVVVK
notes: Rabbit monoclonal raised against fixed NOX4-overexpressing HEK293 cells and a peptide of human NOX4 amino acids 209-282 (E-loop); also called mAb 47-6; 47-6 mAb
With B1, the binding result (with endogenous human NOX4; in assay [1]) was “binds” each time.
